# Laboratory results: PMC10268231 (Nature, 2021)
# B1: 6xTEL (ssDNA)
# DNA: TTAGGGTTAGGGTTAGGGTTAGGGTTAGGGTTAGGG
# B2: (TTAGGG)2TTA 15-nt template (ssDNA)
# DNA: TTAGGGTTAGGGTTA
# B3: 3xTEL (ssDNA)
# DNA: TTAGGGTTAGGGTTAGGG
# Legend:
# [1] = molecular target: T1, CTC1;STN1;TEN1;POLA1 (p180);POLA2 (p70);PRIM1 (p49);PRIM2 (p58) (human;human;human;human;human;human;huma …, UniProt Q2NKJ3;Q9H668;Q86WV5;P09884;Q14181;P49642;P49643 …, ||||||); experiment: cryo-EM
# [2] = molecular target: T1, CTC1;STN1;TEN1;POLA1 (p180);POLA2 …; experiment: negative-stain EM
# [3] = molecular target: T1, CTC1;STN1;TEN1;POLA1 (p180);POLA2 …; experiment: cryo-EM; remark: listed apart in the source
binder,measurement,setting,value
B1,binding result,[1],binds
B2,binding result,[2],binds
B3,binding result,[3],binds
